In patent US20130315910A1 (Xencor, published 2013):

T1: human FcγRIIa (131R), His- and GST-tagged (human, UniProt P12318 34-217)
T1 construct: Expressed in HEK293T cells, purified by nickel chromatography; also called R131 FcγRIIa; not shown: 6xHis and GST tags of the pTT5 vector
T1 sequence (looked up): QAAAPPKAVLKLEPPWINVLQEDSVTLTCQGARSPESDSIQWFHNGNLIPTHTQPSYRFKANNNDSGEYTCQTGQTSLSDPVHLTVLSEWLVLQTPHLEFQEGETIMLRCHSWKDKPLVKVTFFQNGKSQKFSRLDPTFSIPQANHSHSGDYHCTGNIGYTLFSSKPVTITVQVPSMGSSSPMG

T2: human FcγRIIb receptor protein (R&D Systems) (human, UniProt P31994 46-217)
T2 construct: Bought protein injected over captured antibody in Biacore; also called CD32b
T2 sequence (looked up): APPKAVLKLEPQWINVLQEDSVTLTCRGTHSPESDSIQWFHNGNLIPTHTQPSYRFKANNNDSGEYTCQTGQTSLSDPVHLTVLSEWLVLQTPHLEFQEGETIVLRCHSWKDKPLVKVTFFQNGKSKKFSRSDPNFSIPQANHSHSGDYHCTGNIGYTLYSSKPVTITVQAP


How the values were obtained:
[1] = biological target: T1, human FcγRIIa (131R), His- and …; experiment: SPR
Experimental: (§1) Variants were screened for receptor affinity using Biacore™ technology, also referred to as Biacore herein, a surface plasmon resonance (SPR) based technology for studying biomolecular interactions in real time. SPR measurements were performed using a Biacore 3000 instrument (Biacore, Piscataway, N.J.). A protein A/G (Pierce Biotechnology) CM5 biosensor chip (Biacore) was generated using a standard primary amine coupling protocol. All measurements were performed using HBS-EP buffer (10 mM HEPES pH 7.4, 0.15 M NaCl, 3 mM EDTA, 0.005% vol/vol surfactant P20, Biacore). Antibodies at 20 nM or 50 nM in HBS-EP buffer were immobilized on the protein A/G surface and FcγRs were injected. After each cycle, the surface was regenerated by injecting glycine buffer (10 mM, pH 1.5). Data were processed by zeroing time and response before the injection of FcγR and by subtracting appropriate nonspecific signals (response of reference channel and injection of running buffer). Kinetic analyses were performed by global fitting of binding data with a 1:1 Langmuir binding model using BIAevaluation software (Biacore).

[2] = biological target: T2, human FcγRIIb receptor protein (R&D …); experiment: SPR
Experimental: as §1

Fold vs WT IgG1 [1]	Kd [1]	Fold vs WT IgG1 [2]	Kd [2]	binding result [1]	binding result [2]	Binder
0.00859 fold	100 µM	0.0147 fold	100 µM			G237P (antibody, human IgG1, kappa, HuAM4G7 anti-CD19 IgG1 (m1) with this Fc substitution, EU index; copies: 2 + 2) heavy: not shown light: DIVMTQSPATLSLSPGERATLSCRSSKSLQNVNGNTYLYWFQQKPGQSPQLLIYRMSNLNSGVPDRFSGSGSGTEFTLTISSLEPEDFAVYYCMQHLEYPITFGAGTKLEIKRTVAAPSVFIFPPSDEQLKSGTASVVCLLNNFYPREAKVQWKVDNALQSGNSQESVTEQDSKDSTYSLSSTLTLSKADYEKHKVYACEVTHQGLSSPVTKSFNRGEC
0.0141 fold	60.7 µM	0.0644 fold	22.8 µM			L234P (antibody, human IgG1, kappa, HuAM4G7 anti-CD19 IgG1 (m1) with this Fc substitution, EU index; copies: 2 + 2) heavy: not shown light: DIVMTQSPATLSLSPGERATLSCRSSKSLQNVNGNTYLYWFQQKPGQSPQLLIYRMSNLNSGVPDRFSGSGSGTEFTLTISSLEPEDFAVYYCMQHLEYPITFGAGTKLEIKRTVAAPSVFIFPPSDEQLKSGTASVVCLLNNFYPREAKVQWKVDNALQSGNSQESVTEQDSKDSTYSLSSTLTLSKADYEKHKVYACEVTHQGLSSPVTKSFNRGEC
				no binding	no binding	L234F/G236N (antibody, human IgG1, kappa, HuAM4G7 anti-CD19 IgG1 (m1) with these Fc substitutions, EU index; copies: 2 + 2) heavy: not shown light: DIVMTQSPATLSLSPGERATLSCRSSKSLQNVNGNTYLYWFQQKPGQSPQLLIYRMSNLNSGVPDRFSGSGSGTEFTLTISSLEPEDFAVYYCMQHLEYPITFGAGTKLEIKRTVAAPSVFIFPPSDEQLKSGTASVVCLLNNFYPREAKVQWKVDNALQSGNSQESVTEQDSKDSTYSLSSTLTLSKADYEKHKVYACEVTHQGLSSPVTKSFNRGEC
0.122 fold	7.01 µM	0.00585 fold	251 µM			L235P (antibody, human IgG1, kappa, HuAM4G7 anti-CD19 IgG1 (m1) with this Fc substitution, EU index; copies: 2 + 2) heavy: not shown light: DIVMTQSPATLSLSPGERATLSCRSSKSLQNVNGNTYLYWFQQKPGQSPQLLIYRMSNLNSGVPDRFSGSGSGTEFTLTISSLEPEDFAVYYCMQHLEYPITFGAGTKLEIKRTVAAPSVFIFPPSDEQLKSGTASVVCLLNNFYPREAKVQWKVDNALQSGNSQESVTEQDSKDSTYSLSSTLTLSKADYEKHKVYACEVTHQGLSSPVTKSFNRGEC
2.04 fold	0.42 µM				no binding	L235Q (antibody, human IgG1, kappa, HuAM4G7 anti-CD19 IgG1 (m1) with this Fc substitution, EU index; copies: 2 + 2) heavy: not shown light: DIVMTQSPATLSLSPGERATLSCRSSKSLQNVNGNTYLYWFQQKPGQSPQLLIYRMSNLNSGVPDRFSGSGSGTEFTLTISSLEPEDFAVYYCMQHLEYPITFGAGTKLEIKRTVAAPSVFIFPPSDEQLKSGTASVVCLLNNFYPREAKVQWKVDNALQSGNSQESVTEQDSKDSTYSLSSTLTLSKADYEKHKVYACEVTHQGLSSPVTKSFNRGEC
0.902 fold	0.952 µM	0.33 fold	4.45 µM			G237Y (antibody, human IgG1, kappa, HuAM4G7 anti-CD19 IgG1 (m1) with this Fc substitution, EU index; copies: 2 + 2) heavy: not shown light: DIVMTQSPATLSLSPGERATLSCRSSKSLQNVNGNTYLYWFQQKPGQSPQLLIYRMSNLNSGVPDRFSGSGSGTEFTLTISSLEPEDFAVYYCMQHLEYPITFGAGTKLEIKRTVAAPSVFIFPPSDEQLKSGTASVVCLLNNFYPREAKVQWKVDNALQSGNSQESVTEQDSKDSTYSLSSTLTLSKADYEKHKVYACEVTHQGLSSPVTKSFNRGEC
3.06 fold	0.281 µM	2.37 fold	0.619 µM			L235T/S267E (antibody, human IgG1, kappa, HuAM4G7 anti-CD19 IgG1 (m1) with these Fc substitutions, EU index; copies: 2 + 2) heavy: not shown light: DIVMTQSPATLSLSPGERATLSCRSSKSLQNVNGNTYLYWFQQKPGQSPQLLIYRMSNLNSGVPDRFSGSGSGTEFTLTISSLEPEDFAVYYCMQHLEYPITFGAGTKLEIKRTVAAPSVFIFPPSDEQLKSGTASVVCLLNNFYPREAKVQWKVDNALQSGNSQESVTEQDSKDSTYSLSSTLTLSKADYEKHKVYACEVTHQGLSSPVTKSFNRGEC
0.0342 fold	25.1 µM	0.147 fold	10 µM			G237V (antibody, human IgG1, kappa, HuAM4G7 anti-CD19 IgG1 (m1) with this Fc substitution, EU index; copies: 2 + 2) heavy: not shown light: DIVMTQSPATLSLSPGERATLSCRSSKSLQNVNGNTYLYWFQQKPGQSPQLLIYRMSNLNSGVPDRFSGSGSGTEFTLTISSLEPEDFAVYYCMQHLEYPITFGAGTKLEIKRTVAAPSVFIFPPSDEQLKSGTASVVCLLNNFYPREAKVQWKVDNALQSGNSQESVTEQDSKDSTYSLSSTLTLSKADYEKHKVYACEVTHQGLSSPVTKSFNRGEC
0.693 fold	1.24 µM	0.192 fold	7.64 µM			L234S (antibody, human IgG1, kappa, HuAM4G7 anti-CD19 IgG1 (m1) with this Fc substitution, EU index; copies: 2 + 2) heavy: not shown light: DIVMTQSPATLSLSPGERATLSCRSSKSLQNVNGNTYLYWFQQKPGQSPQLLIYRMSNLNSGVPDRFSGSGSGTEFTLTISSLEPEDFAVYYCMQHLEYPITFGAGTKLEIKRTVAAPSVFIFPPSDEQLKSGTASVVCLLNNFYPREAKVQWKVDNALQSGNSQESVTEQDSKDSTYSLSSTLTLSKADYEKHKVYACEVTHQGLSSPVTKSFNRGEC
0.0859 fold	10 µM	0.147 fold	10 µM			G237Q (antibody, human IgG1, kappa, HuAM4G7 anti-CD19 IgG1 (m1) with this Fc substitution, EU index; copies: 2 + 2) heavy: not shown light: DIVMTQSPATLSLSPGERATLSCRSSKSLQNVNGNTYLYWFQQKPGQSPQLLIYRMSNLNSGVPDRFSGSGSGTEFTLTISSLEPEDFAVYYCMQHLEYPITFGAGTKLEIKRTVAAPSVFIFPPSDEQLKSGTASVVCLLNNFYPREAKVQWKVDNALQSGNSQESVTEQDSKDSTYSLSSTLTLSKADYEKHKVYACEVTHQGLSSPVTKSFNRGEC
0.00859 fold	100 µM	0.0147 fold	100 µM			L235S (antibody, human IgG1, kappa, HuAM4G7 anti-CD19 IgG1 (m1) with this Fc substitution, EU index; copies: 2 + 2) heavy: not shown light: DIVMTQSPATLSLSPGERATLSCRSSKSLQNVNGNTYLYWFQQKPGQSPQLLIYRMSNLNSGVPDRFSGSGSGTEFTLTISSLEPEDFAVYYCMQHLEYPITFGAGTKLEIKRTVAAPSVFIFPPSDEQLKSGTASVVCLLNNFYPREAKVQWKVDNALQSGNSQESVTEQDSKDSTYSLSSTLTLSKADYEKHKVYACEVTHQGLSSPVTKSFNRGEC
0.134 fold	6.42 µM	0.456 fold	3.22 µM			L234V (antibody, human IgG1, kappa, HuAM4G7 anti-CD19 IgG1 (m1) with this Fc substitution, EU index; copies: 2 + 2) heavy: not shown light: DIVMTQSPATLSLSPGERATLSCRSSKSLQNVNGNTYLYWFQQKPGQSPQLLIYRMSNLNSGVPDRFSGSGSGTEFTLTISSLEPEDFAVYYCMQHLEYPITFGAGTKLEIKRTVAAPSVFIFPPSDEQLKSGTASVVCLLNNFYPREAKVQWKVDNALQSGNSQESVTEQDSKDSTYSLSSTLTLSKADYEKHKVYACEVTHQGLSSPVTKSFNRGEC
0.0554 fold	15.5 µM	0.108 fold	13.6 µM			L234I (antibody, human IgG1, kappa, HuAM4G7 anti-CD19 IgG1 (m1) with this Fc substitution, EU index; copies: 2 + 2) heavy: not shown light: DIVMTQSPATLSLSPGERATLSCRSSKSLQNVNGNTYLYWFQQKPGQSPQLLIYRMSNLNSGVPDRFSGSGSGTEFTLTISSLEPEDFAVYYCMQHLEYPITFGAGTKLEIKRTVAAPSVFIFPPSDEQLKSGTASVVCLLNNFYPREAKVQWKVDNALQSGNSQESVTEQDSKDSTYSLSSTLTLSKADYEKHKVYACEVTHQGLSSPVTKSFNRGEC
